Assay results taken from the supplement of paper PMC9170038.

System: MS2 coat protein
Assay: apparent KD of MS2 coat protein; designed switch direction (-1 OFF switch, 1 ON switch): -1; higher = weaker reporter binding
Procedure, shortened: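 The reported apparent KD is a per-design median over clusters, from curve fits of normalised cluster fluorescence. Protein titrations used SNAP-549-labelled MS2 coat protein, doubled from 0.7 or 1.5 nM to 3 µM, in Tris-HCl pH 7.5 buffer with KCl, MgCl2, BSA, DTT, tRNA and Tween-20, with no input, 200 uM small-molecule ligand, or an oligonucleotide input. The RNA switches were transcribed on Illumina chips by stalled E. coli RNA polymerase.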

[1] = input ligand: microRNA oligo, concentration not stated

Sequence	apparent KD of MS2 coat protein (input ligand: FMN 200 uM)	apparent KD of MS2 coat protein [1]	apparent KD of MS2 coat protein (input ligand: none)	apparent KD of MS2 coat protein (Eterna round: R95, input ligand: microRNA oligo, concentration not stated)
CACCGUUACAGAGGAUAUGGUACAUGAGGAUCACCCAUGUAAUAAAUGAGAAUUUCGAAUGUAAUCCAGAAGGCUGGAAUCGGC [Ostricism 74 - Jieux - Exclusion NG 2] (Eterna round: R96, puzzle: Exclusion NG 2)	228 nM	85.2 nM	96.3 nM	
AUAAUGUCAGGAUAUCAGUCGACUAGCCUCGGCUAGUCGACUGAGAAGGGACAUGAGGAUCACCCAUGUGUUUC [E4/14-A2] (Eterna round: R97, puzzle: Exclusion 4)	811 nM		569 nM	
AAAAUUGGUGAGGAUAUGCAGAUGCGCAAUGUCGCAGAAGGCACCACAUGAGGAUCACCCAUGUGUCCUCUAAA [EX6 A.19] (Eterna round: R97, puzzle: Exclusion 6)	34 nM		19.8 nM	
GCUGGUCGAGGAUAUACAAUCGUGCUUCGGCACGUAAGAUCACAUGAGGAUCACCCAUGUAGAAGGUGACCAGC [E2/1-B3] (Eterna round: R97, puzzle: Exclusion 2)	118 nM		25.1 nM	
GAAUAGAGAGGAUAUGCGAAGUAGGUAGUACGAUAUAUCUGACAUGAGGAUCACCCAUGUAGAAGGCUCAGAUC [EX2 #5] (Eterna round: R97, puzzle: Exclusion 2)	34.4 nM		40.3 nM	
UCUUAUUGAGGAUAUACAUUAAAAUACAUGAGGAUCACCCAUGUUCUUCAAUGUAUAUAUGUAGAAGGCAGAAGAU [Mat - Exclusion 5 - JL Mod - D26] (Eterna round: R97, puzzle: Exclusion 5)	155 nM		36.9 nM	
UGCGUGUGAGGAUAUGCGCGUGGCGAUCUUAAGUUACGCAAGCAGAAGGCACAUGAGGAUCACCCAUGUGGCCA [Eternabot (L1) Solution 20] (Eterna round: R97, puzzle: Exclusion 4)	98.5 nM		20.3 nM	
GAGUAGAGAGGAUAUGCAAUGAUCAUCGUACGAUGAGGCUGACAUGAGGAUCACCCAUGUAGAAGGCUCUGGUC [EX2 #20] (Eterna round: R97, puzzle: Exclusion 2)	22.5 nM		23.3 nM	
UUAGAUUAUGAAGGAUAUGGAUCUUAUUAUUAACCAGAAGGUCAACUCAACAUGAGGAUCACCCAUGUAUAAAGGGUAUUAGUU (Eterna round: R96, puzzle: Exclusion NG 1)		109 nM		
UACAUGAGGAUCACCCAUGUUUUGUCGUGUAUGGUAUUUAUCUAGGAUAUCAAGUUAAUUAUUUAUGAGAAGGAGAAUAUUAAU [JMF's solution 28] (Eterna round: R96, puzzle: Exclusion NG 3)	37 nM	31.7 nM	39 nM	
CUUAGGGCGGAGGAUAUGCCGUGGGCGAAUACAGUAGAAGGCCGCACUUGAGGAUCACCCAAGUAUGGUCAAAC [Inusisbeor] (Eterna round: R97, puzzle: Exclusion 6)	15.4 nM		13.1 nM	
AUUGUAUGGGAAGGAUAUAGAAUAUUAUUUUAACAUGAGGAUCACCCAUGUAACCUUAUGUGUAGCUAGAAGGUCCGUUUGUUA [Title] (Eterna round: R96, puzzle: Exclusion NG 2)		269 nM		
GCUGGACGAGGAUAUACAAUCGUGCUUCGGCACGUAAGGUCACAUGAGGAUCACCCAUGUAGAAGGUGUCCAGC [E2/2-B2] (Eterna round: R97, puzzle: Exclusion 2)	54.8 nM		18.3 nM	
GCAGCAUAGUAAACAUACUGUUACAUGAGGAUCACCCAUGUACAGGAUAUGGUCUGGAUUACAGGCCAGAAGGGUACAAGCUGC [Eli exng3 - 023] (Eterna round: R96, puzzle: Exclusion NG 3)	8.36 nM	13 nM	12.8 nM	
UCACCGCAAGGAUAUACUUGCGGUGAUGUUCGAAAUCUUCUACUUGAGGAUCACCCAAGUAGAAGGUGCGGUGA [jl-ex2.4.66 ViennaUCT mod] (Eterna round: R97, puzzle: Exclusion 2)	14.3 nM		12.8 nM	
AAUGUCUGAGGAUAUCGUUUUUUGUACAUGAGGAUCACCCAUGUUUUAUUUUGUAUAUUACGAGAAGGCAGUGGAA [JR_E5_Sub088] (puzzle: Exclusion 5)				22.7 nM
GGACGGAUAGGAUAUACAUGAGGAUCACCCAUGUGAACCCAGCAGAGGCUUCUUUGCAGUAGAAGGGUCCUUUA [Eternabot (Original) Solution 43] (Eterna round: R97, puzzle: Exclusion 3)	53.5 nM		47.5 nM	
CGGAUGUUAGGAUAUUAGUAGUAGUCAGAAUAGACUAUUACUGAGAAGGAACAUGAGGAUCACCCAUGUUUCCG [Eli x4 4.19] (Eterna round: R97, puzzle: Exclusion 4)	16.5 nM		17.4 nM	
